The record followed here is article PMC3166162, “A Dual Binding Mode for RhoGTPases in Plexin Signalling” (PLoS Biology, 2011).

The target in assay [1] is Plexin-B1_(cyto) (entire cytoplasmic domain of human Plexin-B1, residues 1511-2135) (human) (UniProt O43157). The assay can be described thus: crystal structure; Plexin-B1_(cyto) and Rac1* mixed 1:1.2; 1 M Li2SO4, 0.5 M ammonium sulphate, 0.1 M citrate pH 5.6; 4.4 Å; three complexes in the asymmetric unit.
In assay [2] the target is T1, Plexin-B1_(cyto) Arg1921Ala (human, UniProt O43157-1 1511-2135, Arg1921Ala, biotin, added enzymatically within the engineered C-terminal tag).
T1 construct: human Plexin-B1, cytoplasmic region, residues 1511-2135; also called Arg1921Ala^Plex; site B mutant; source: HEK 293T cells, transfected, purified; not shown: engineered tag for enzymatic biotinylation, C-terminal, kept
Kind of assay: SPR; Biacore T100, 25°C, standard buffer with 0.05% (v/v) Tween 20; biotinylated plexin constructs on streptavidin surfaces (500-5,000 RU); RhoGTPase injected, 120 nM to 500 µM; equilibrium responses fitted to a 1:1 Langmuir model. Conditions: both partners purified.
T1 sequence (O43157 1511-2135 R1921A): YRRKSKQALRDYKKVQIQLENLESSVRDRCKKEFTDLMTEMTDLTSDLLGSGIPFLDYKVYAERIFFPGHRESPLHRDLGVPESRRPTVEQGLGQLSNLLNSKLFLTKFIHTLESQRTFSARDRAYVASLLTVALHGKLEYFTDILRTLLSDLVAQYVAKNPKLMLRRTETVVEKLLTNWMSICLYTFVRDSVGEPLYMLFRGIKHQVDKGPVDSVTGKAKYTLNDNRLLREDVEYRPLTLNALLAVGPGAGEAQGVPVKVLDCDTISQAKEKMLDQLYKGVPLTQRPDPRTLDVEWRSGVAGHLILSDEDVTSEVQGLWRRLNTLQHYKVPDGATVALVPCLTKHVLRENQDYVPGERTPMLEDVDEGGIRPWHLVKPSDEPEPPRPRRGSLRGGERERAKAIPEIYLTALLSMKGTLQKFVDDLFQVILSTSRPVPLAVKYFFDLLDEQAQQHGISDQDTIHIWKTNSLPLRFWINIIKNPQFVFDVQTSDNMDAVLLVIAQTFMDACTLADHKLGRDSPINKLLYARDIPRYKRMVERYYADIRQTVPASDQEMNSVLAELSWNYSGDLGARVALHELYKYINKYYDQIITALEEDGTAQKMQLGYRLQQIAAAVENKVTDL

Assay [3] deals with T2, Plexin-B1_(cyto), wild type, biotinylated within an engineered C-terminal tag for SPR (human, UniProt O43157-1 1511-2135, biotin, added enzymatically within the engineered C-terminal tag).
T2 construct: human Plexin-B1, cytoplasmic region, residues 1511-2135; also called Plexin-B1cyto WT; full-length Plexin-B1_(cyto); source: purified; mutant constructs for SPR: HEK 293T; not shown: engineered tag for enzymatic biotinylation, C-terminal, kept
Described as above. Conditions: both partners purified.

In assay [4] the target is T3, Plexin-B1_(cyto) Thr1920Glu (human, UniProt O43157-1 1511-2135, Thr1920Glu, biotin, added enzymatically within the engineered C-terminal tag).
T3 construct: human Plexin-B1, cytoplasmic region, residues 1511-2135; also called Thr1920Glu^Plex; site B mutant; source: HEK 293T cells, transfected, purified; not shown: engineered tag for enzymatic biotinylation, C-terminal, kept
The assay is described as above. Conditions: both partners purified.
T3 sequence (O43157 1511-2135 T1920E): as the sequence (O43157 1511-2135 R1921A) above, with T410E, A411R counted along it

Assay [5] deals with T4, Plexin-B1_(cyto) Leu2036Arg (human, UniProt O43157-1 1511-2135, Leu2036Arg, biotin, added enzymatically within the engineered C-terminal tag).
T4 construct: human Plexin-B1, cytoplasmic region, residues 1511-2135; also called Leu2036Arg^Plex; site B mutant; source: HEK 293T cells, transfected, purified; not shown: engineered tag for enzymatic biotinylation, C-terminal, kept
The assay is described as above. Conditions: both partners purified.
T4 sequence (O43157 1511-2135 L2036R): as the sequence (O43157 1511-2135 R1921A) above, with A411R, L526R counted along it

In assay [6] the target is T5, Plexin-B1Δ2 Leu1815Glu (human, UniProt O43157-1 1543-2135, Leu1815Glu, biotin, added enzymatically within the engineered C-terminal tag).
T5 construct: human Plexin-B1, cytoplasmic region lacking the N-terminal helix, residues 1543-2135; also called site A Plexin-B1Δ2 mutant Leu1815Glu^Plex; source: HEK 293T cells, transfected, purified; not shown: engineered tag for enzymatic biotinylation, C-terminal, kept
The assay can be described thus: SPR; as a1, high coupling density: 5,000 RU of the plexin construct loaded on the chip; RhoGTPase 120 nM to 2,000 µM. Conditions: both partners purified.
T5 sequence (O43157 1543-2135 L1815E): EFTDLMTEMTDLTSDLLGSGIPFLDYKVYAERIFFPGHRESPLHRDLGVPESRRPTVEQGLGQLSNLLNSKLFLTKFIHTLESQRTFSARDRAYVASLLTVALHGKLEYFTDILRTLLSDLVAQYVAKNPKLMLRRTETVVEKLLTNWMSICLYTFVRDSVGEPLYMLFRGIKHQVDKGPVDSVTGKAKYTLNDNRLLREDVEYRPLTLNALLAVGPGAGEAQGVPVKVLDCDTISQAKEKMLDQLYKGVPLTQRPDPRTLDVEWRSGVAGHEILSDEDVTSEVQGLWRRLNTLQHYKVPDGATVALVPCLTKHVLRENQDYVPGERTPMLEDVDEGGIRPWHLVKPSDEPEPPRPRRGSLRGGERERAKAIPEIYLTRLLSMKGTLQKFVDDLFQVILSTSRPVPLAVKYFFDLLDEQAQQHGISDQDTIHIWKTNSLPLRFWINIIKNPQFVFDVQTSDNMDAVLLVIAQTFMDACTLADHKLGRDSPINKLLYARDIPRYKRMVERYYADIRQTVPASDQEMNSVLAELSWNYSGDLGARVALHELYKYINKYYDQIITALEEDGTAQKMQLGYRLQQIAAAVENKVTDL

Assay [7] concerns the target Plexin-B1Δ2 Leu1815Glu (human, UniProt O43157-1 1543-2135, Leu1815Glu, biotin, added enzymatically within the engineered C-terminal tag). The assay can be described thus: SPR; surface 5,000 RU.
Target sequence in this assay (O43157 1543-2135 L1815E): as above
Assay [8] addresses Plexin-B1_(cyto) Leu2036Arg (human, UniProt O43157-1 1511-2135, Leu2036Arg, biotin, added enzymatically within the engineered C-terminal tag). The assay can be described thus: SPR.
Target sequence in this assay (O43157 1511-2135 L2036R): as the sequence (O43157 1511-2135 R1921A) above, with A411R, L526R counted along it
Assay [9] addresses Plexin-B1_(cyto) Arg1921Ala (human, UniProt O43157-1 1511-2135, Arg1921Ala, biotin, added enzymatically within the engineered C-terminal tag). The assay can be described thus: SPR.
Target sequence in this assay (O43157 1511-2135 R1921A): as the sequence (O43157 1511-2135 R1921A) above
Assay [10] concerns the target Plexin-B1_(cyto) Thr1920Glu (human, UniProt O43157-1 1511-2135, Thr1920Glu, biotin, added enzymatically within the engineered C-terminal tag). The assay can be described thus: SPR.
Target sequence in this assay (O43157 1511-2135 T1920E): as the sequence (O43157 1511-2135 R1921A) above, with T410E, A411R counted along it

T2 sequence (O43157 1511-2135, change not shown): as the sequence (O43157 1511-2135 R1921A) above, with A411R counted along it

Consider “Plexin-B1_(cyto) (entire cytoplasmic domain of human Plexin-B1, residues 1511-2135) (from UniProt O43157-1 1511-2135) (domain or fragment)”, for which the stoichiometry N in assay [1] came out at 3.

B1: Rnd1 (residues 5-200) (enzyme, human, UniProt Q92730 5-200, looked up)
chain: RAPQPVVARCKLVLVGDVQCGKTAMLQVLAKDCYPETYVPTVFENYTACLETEEQRVELSLWDTSGSPYYDNVRPLCYSDSDAVLLCFDISRPETVDSALKKWRTEILDYCPSTRVLLIGCKTDLRTDLSTLMELSHQKQAPISYEQGCAIAKQLGAEIYLEGSAFTSEKSIHSIFRTASMLCLNKPSPLPQKSPV
notes: human Rnd1, residues 5-200; source: E. coli BL21 Star, purified
As for B1, the binding result (in [2]; in [4]; in assay [5]; with Plexin-B1Δ2 Leu1815Glu [6]) was “binds” each time. In addition, the Kd amounted to 22.9 µM in assay [3]; 486 µM with Plexin-B1Δ2 Leu1815Glu [7]; 16.5 µM in assay [8]; 15.2 µM in [9]; 14.2 µM in [10].
